According to patent publication US20080118509A1 (CEPHALON AUSTRALIA, published 2008):

Target: T1, CEA (180 KDa glycoprotein purified from colorectal tumour liver metastases by affinity chromatography with … (UniProt P06731 35-685))
T1 construct: Native glycoprotein dried onto microtitre plates; also called purified CEA
T1 sequence (looked up): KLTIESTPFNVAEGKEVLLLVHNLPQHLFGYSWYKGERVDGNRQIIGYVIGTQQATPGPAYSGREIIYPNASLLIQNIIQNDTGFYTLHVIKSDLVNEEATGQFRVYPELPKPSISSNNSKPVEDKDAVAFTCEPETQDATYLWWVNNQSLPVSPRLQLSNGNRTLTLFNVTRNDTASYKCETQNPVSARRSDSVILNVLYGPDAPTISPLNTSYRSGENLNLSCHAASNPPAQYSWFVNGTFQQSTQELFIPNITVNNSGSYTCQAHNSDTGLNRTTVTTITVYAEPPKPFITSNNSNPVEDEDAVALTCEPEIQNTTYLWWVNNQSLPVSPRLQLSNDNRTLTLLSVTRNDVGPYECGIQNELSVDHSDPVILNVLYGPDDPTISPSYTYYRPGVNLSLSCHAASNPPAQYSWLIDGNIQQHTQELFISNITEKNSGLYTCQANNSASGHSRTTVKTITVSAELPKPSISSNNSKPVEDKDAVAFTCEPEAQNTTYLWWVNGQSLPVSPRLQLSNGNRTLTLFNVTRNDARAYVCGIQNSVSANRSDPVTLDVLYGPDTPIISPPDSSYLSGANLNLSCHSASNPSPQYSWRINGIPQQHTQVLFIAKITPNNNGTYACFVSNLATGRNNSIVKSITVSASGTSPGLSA
Test: ELISA, antigen dried onto microtitre plates (FIG. 4)
Description: (§1) The C14 antigen (90 KDa glycoprotein purified from saliva by affinity chromatography on C14 monoclonal), CEA (180 KDa glycoprotein purified from colorectal tumour live metastases by affinity chromatography with 365 mab) and glycolipid extract (glycolipid extracted in 3:1 methanol chloroform w/v from colorectal tumours) were dried onto microtitre plates by overnight incubation at 37° C. Binding of SC104 mab was assayed by ELISA and results expressed as absorbance 405 nm. SC101 and anti-CEA antibodies are included as positive controls.
as §1, with “Binding to purified antigen preparations. The” for “The”, “ELISA” for “ELISA and results expressed”, “described above.” for “absorbance 405 nm. SC101 and anti-CEA antibodies are included as positive controls.”

B1: SC104 monoclonal antibody (antibody, V domains shown)
VH: DVQLQESGPDLVKPSQSLSLTCTVTGYSITSGYSWHWVRQFPGNKMEWMGHIHFSGRPTYNPSLSSRISITRDTSKNQFLLQLKFVTTEDTSTYFCARKGKGSDDGLNYWGQGISVTVSS
VL: ENVLTQSPVIMSASPGEKVTMTCSASSSLSYIHWYQQKSRTSPKLWIYDTSNLASGVPGRFSGSGSGNSYSLTISSMEAEDVATYYCFQGSEYPLTFGGGTKLEMT
notes: Mouse IgG1 mab with kappa light chain, from hybridoma SC104/1E9; also called SC104 mab; SC104 antibody
B1: no binding.
